# Molecular target: FLAG-tagged BVLF1 (Epstein-Barr virus)
# Assay: co-IP; FLAG-tagged BVLF1 as bait with BFRF2 together with BGLF3 or BGLF3(T42A) in 2089 cells; anti-FLAG M2 agarose; anti-Myc blot; quantitation from two independent experiments
binder,measurement,value
BFRF2 (natural protein) MALFLARHTLSGTGAGCHGRGPAPDVSEVDLTLQALGERGFSRLLDLGLACLDLSYVEMREFVVWGRPPASEAAVASTPGSLFRSHSSAYWLSEVERPGGLVRWARSQTSPSSLTLAPHLGPSLLSLSVVTGGGCGAVAFCNAFFLAYFLVVRSVFPAFSDRIAAWICDRSPFCENTRAVARGYRGLVKRFLAFVFERSSYDPPLLRQNSRPVERCFAIKNYVPGLDSQSCVTVPSFSRWAQSHASELDPREIRDRVTPATAPSFVADHASALLASLQKKASDTPCGNPIQWMWYRLLVNSCLRSAHCLLPIPAVSEGGRKTGGGVGEELVGAGGPCLSRDVFVAIVSRNVLSCLLNVPAAGPRAYKCFRSHASRPVSGPDYPPLAVFCMDCGYCLNFGKQTGVGGRLNSFRPTLQFYPRDQKEKHVLTCHASGRVYCSNCGSAAVGCQRLAEPPSARSGWRPRIRAVLPHNAAYELDRGSRLLDAIIPCLGPDRTCMRPVVLRGVTVRQLLYLTLRTEARAVCSICQQRQAPEDARDEPHLFSSCLEVELPPGERCAGCRLYQTRYGTPAAQAHPPGEAGGGFSRQSPAS,fold increase of the BVLF1-BFRF2 interaction with wild type BGLF3 relative to no BGLF3,6 fold
